Source: a protein production outcome set (Wang et al. 2014)
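Also: failed if final PepcDB status was selected cloned or expressed and not failed if soluble or beyond.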

Assay: label from the status in PepcDB records
With “AQQQELPVPKPHQLKWHEAEMGAVFHYDLHVFDGIRYGQGNNRINPIEDYNIFNPTELNTDQWVQAAKAAGCKFAVLTATHETGFGLWQSDVNPYCLKAVKWRDGKGDIVRDFVNSCRKYGLQPGIYIGIRWNSLLGIHNFKAEGEGAFARNRQAWYKRLCEKMVTELCTRYGDLYMIWFDGGADDPRADGPDVEPIVNKYQPNCLFYHNIDRADFRWGGSETGTVEYPCWSTFPVPCSHHKRIESSIDQLELLKHGDKNGRYWVPAMADTPLRGANGRHEWFWEPDDENNIYPLNTLMDKYEKSVGRNATLILGLTPDPTGLIPAGDAQRLKEMGDEINRRFSSPIARISGQKKSLTLKLGKEQSVNYCIIQENIKNGERIRQYQIEAKVNGKWQTVCKGESVGHKRIEKFEPVEATALRLTVSESIALPDIINFSAYSVK” the protein production was “not failed”. In the case of “AQRRNEIQVPDLDGYTTLKCDFHMHSVFSDGLVWPTVRVDEAYRDGLDAISLTEHIEYRPHKQDVVSDHNRSFDLCREQAEKLGILLIKGSEITRAMAPGHFNAIFLSDSNPLEQKDYKDAFREAKKQGAFMFWNHPGWDSQQPDTTKWWPEHTALYQEGCMHGIEVANGHLYMPEAIQWCLDKNLTMIGTSDIHQPIQTDYDFEKGEHRTMTFVFAKERSLQGIREALDNRRTAAYFHELLIGREDLLRPFFEKCVKIEEVSRNEQGVTLSITNVTDLVLKLKKTAHDTLLVYFRDMTLKPHTRYTVRIGFKQGIKGGDVNFEVTNFIVAPDKGLKYTISL”, the protein production is reported as “not failed”. In the case of “ARYYQHNAIEAVLEAISQGKNRMLLTLATGTGKTFIAFQLAWKLFQAKWNISGEPTHRPRILFLADRNILANQAFNAFGAFDDDALVRIDPKEIKKKGKVPKNGSLFFSIFQTFMTTKGDKDFAHFYDYAPDFFDFIIIDECHRGGANDESTWRKILEYFSPAVQLGLTATPKRDVNGDTYKYFGEPLYTYSLKEGINDGYLTPFKVVQFTTTLDEYLYDPDDDVIEGDIDEARTYEEKDFNRIIEMEEREKQRVQLFMEAINQNEKTLVFCATQDHALAVRDLINQMKISTDPNYCVRVTANDGSIGETNLKTFQDNEKAIPTILTTSRKLSTGVDARNVRNIVLLRPINSMIEFKQIIGRGTRLFDNKDYFTIYDFVRAYEHFNDDEWDGEPTEPVAIDPEPRKEREKIDLDLEDEPEENRKPQKIKVKLADGKERELAHTQTTTFWDADGKPISAQEFIEKLFGDLPDLFKDEAELRTIWGKPDTRKSFLTGLAE”, the protein production is reported as “failed”. For “ASASIKKVAATLADAAITDGIGDATKAKAALDKISDAGGLIEDIGATRAQFGANINRLEHTMTNLGNMVENTSAAKGRIM”, the protein production was “failed”. With “ASPVENKEVYQCRLCNAKLSSLLEQGSHERLCRNAAVCPYCSLRFFSPELKQEHESKCEYKKLTCLECMRTFKSSFSIWRHQVEVHNQNNMAPT” the protein production was “not failed”. For “ATKEFIYLVRGMTPEQGQAALDLKVPGVYGIEEFRRFYPAGDVTAHMVGFTDLDDHGREGVELAYDDWLAGVPGKRQVIKDRRGRLIKDVQVTKNAKAGKTLALSID”, the protein production was “failed”. With “ATLKQLDGIHVTILHKEEGAGLGFSLAGGADLENKVITVHRVFPNGLASQEGTIQKGNEVLSINGKSLKGTTHHDALAILRQAREPRQAVIVTRKLTPEAMPDLNS” the protein production was “not failed”. In the case of “AWMHGHRFYVDERVIVPRSFIGELLDDGLQPYVEDPELVGSVLELCTGSGCLAILAALAFPNASVDAVDLSADALAVAKINRDDYGLDERIALHHGDLYAPLPQFKWIDSAQRYDVIITNPPYVNAESMAELPAEYRHEPEMALAGGADGMDIVRRIIGEARRWLKDDGVLVVEIGNERANVEAAFGGLELVWLPTSAGDDSVFLIHASD”, the protein production is reported as “failed”. In the case of “AYGLTFEAPKGILVEEDTEETFLLNNSRFYITIQSLDSDGMTKSDLKSVLKDYANDDGVKDQSAVQEFELPQFFGTYLKGSCETDHCLYACLMTKAAGSGFYISIIYSKENENIAEKILKSFTMEE”, the protein production is reported as “not failed”. In the case of “CKLCLGEYPVEQMTTIAQCQCIFCTLCLKQYVELLIKEGLETAISCPDAACPKQGHLQENEIECMVAAEIMQRYKKLQFER”, the protein production is reported as “not failed”. In the case of “CSEVNVVKERPKTDEHKSYSCSFKGCTDVELVAVICPYCEKNFCLRHRHQSDHDCEKLEVAKPRMAATQKLVR”, the protein production is reported as “not failed”. With “CVACSKPISGLTGAKFICFQDSQWHSECFNCGKCSVSLVGKGFLTQNKEIFCQKCGSGMDTDI” the protein production was “not failed”. With “DAAPAPAAEAAPAAAPAPAAAAELKEVHVPDIGGDEVEVTEIMVAIGDSIEEEQSLITVEGDKASMEVPAPFAGTLKEIKVAAGDKVSTGSLIMVFETAGSGAPAAPAAVEAPAAAAPAASAA” the protein production was “failed”. For “DASRQAELVREGITSSSDLVEQSLNKIEKGNSQLNAVTYLRADRALEEAKQINDHGQPFFGVPILLKGLGQKLAGEPATASSRLLKKLVADQTDFYVQALQKAGFIVIGQTNAPEFGFKNITDPTLYGPTRNPWNLDYYSGGSSGGAASSMAADFVSIASGSDGGGSIRIPASFSSLIGLKPTRGRIPVGPTDWRTWQGASISFALTRSVRDNARLLDAIQTVQPAAAFTTPLYEAGFFAGIDQLDRNLTIAYTTKSPVGTEVRDEAKTAVENAVDFLRSEGFQVEEQENPLDGKEIMQLYYLMNAGETAAMFADIEEGIGRPTNIQDMELMSWVIYQAGKLVTAGEYSQALSKWDISSYQMNQFHENYDLYLTPTTAYPAPKLTDELISPELLGRMKEVTSLTSSFERQQLIYDAFLPSLALTPFTQQANLTGEPAISLPTHLTAAGLPLGIQFQAAKGREIDLLRIARLFEKHNLFHFLHKTIF”, the protein production was “failed”. In the case of “DCLLPIVAAPMAGGPTTVALAQAVSGVGGFPFLAGGYKSVEALATEIAVLRASGGNFGVNLFVPSPDMVDAEAFRIYAAKLQSEALPYGLRLDPLPVMGDDDGWPDKLALLLNDPVPVVSFTFGLPAVRDIAALRCAGSRVLASVTLPAEAQAAMEAGVDGLVVQGPDAGGHSATYDPGRPFTPLKTVSLVRRVCAVSSLPVIAAGGVDGPVMVRALLQAGAAAVAIGTLLLRTKESGATQVHKDALANPAYTETVITHAFTGRPARTLRNGFVNRYHASAPLGYPAIHHLTRPLRQAAASAGDADVLHLWAGTGYRQAMDGSAVDVIQ”, the protein production is reported as “failed”. With “DETYYTVDLEQKLEEKFGLEEAIVVATHDMSEEEALNFLAKEAAYTLSKRIAKVNTLGISWGKTIRKFANEFPYIPHKDLTIIPLIGGMGSSDIDLHSNQICYDLKKKMQCHSKYLYAPALVEDTEMKADLSKNKYINEVLEEGKTVDMAIVGVSSPYNQSTMEEIGYITPEDIEELRYKDVVGDINSRFFTANGEEANTQINTHVIGLSLEELKKIPTVVALANGLQKKDALVSALNAGLIDVIVITDRMAEYILQKND” the protein production was “failed”. In the case of “DEWTDEQFKQLISFKTQPGGWGVTDVHVRYANSAKYTYNLPVLVSGSTDNTDDRLVSFSLRDDTLDILNFEKFGNRPELYFRELPQKYYSFPKELTIPAGQSHALLPIEFSLDGLDDSQKWALPLKVCEDANGTYAVNPRKYYRTAVLRPILFNEFSGRFSGSSLLGTMAGESDIKFSSTEIKLNVVTDSIVFFYAGQRTEDYEDRINYKVFLQFTGDKVDSKKDLYKMKIWAENEKLKFNSYSTPTYKVSSEMDATKTYLKHTYIVISDIDFDFVDYTSVPNYEIEYNMKGGLSVSRDLDTRKPDEDQGSDSKWW”, the protein production is reported as “not failed”. With “DHHAWHRLLDRALSEQHFQLYFQPVVAARDTHLVLHYKVLSRLLDEQGQTIPAGRFLPWLERFGWTSRLDLLMLEQVLRQMASHEDCLALNLSAATLADPHALNRVFEILRQHSDLGPRLTLEIGEEQLPEQAMLEQLTRRLRELGFSLSLQRFGGRFSMIGNLARLGLAYLKIDGSYIRDIDQESDKRLFIEAIQRAAHSIDLPLIAERVETEGELQVIREMGLYGVQGQLFGEPAPWG” the protein production was “not failed”. For “DHSLAIIEFDLSSRIIEVNQNYLDYFGYQRDEVIGQYHLMFCHPGYANSDEYQKIKTSLLAGQSLEGRFERIHKDGSRVWLAAIYQPVSGPDGSVTRIVKIAKNIT”, the protein production was “failed”. In the case of “DIRPSKLLTWCQQQTEGYQHVNVTDLTTSWRSGLALCAIIHRFRPELINFDSLNEDDAVENNQLAFDVAEREFGIPPVTTGKEMASAQEPDKLSMVMYLSKFYELFRGTPLRPV”, the protein production is reported as “not failed”. With “DKLDLSPIDYYGSGSYWKTEAQATAYIDGIHKHLRDAAWQHTITFGELRGGRFITGASSDGMGVSNGDIILQNFDETHTGVSKFGDLFGRITNLNLFIARVTDATYLSDEMKNFYLGEVYGLRAFYYFDLYRIYGGVPLRLTADVVEGVIDPNKLYMARSTPKEVMTQIKSDLNKSMEYFGNMNDFDPYKRGKKVYWSKAATECLMGEVYLWTSKVTTGDDVANPADLTIAKTHLESVLNNYNLKMLDDFSQVFNAKNKANDEIIFAIRFLEGEATNSNGTFTYNVGTGSTKNRYQANGEVFGDALDIQNTGNQTYEYNKAVYQNFDDADTRKEATFIASYNKDGKTGELSLYGTHVRKNIGYVNAQGARVYCGDYIFYRLPWVYLTLAEIANMEGDNAAVAKYINLVRKRAYGNAWDETLYAYPETADFTTNELAILHEKDKEFIQEGQRWWDLRRMTLTKGGTPLVFCKEGSLLGDAPILNKSTEAHKLLWPIEKTMLNKDPALEQTPGYK” the protein production was “not failed”. In the case of “DMKQLAEDVKLQLYKLLEIPDPDKNWATLAQKLGLGILNNAFRLSPAPSKTLMDNYEVSGGTVRELVEALRQMGYTEAIEVIQAASS”, the protein production is reported as “not failed”. In the case of “DNDAEALLWSELRDRRLNGFKFVRQVAVGPYFADFACRDERLVVEVDGSQHQIGSGDARRDKFMVMNGWSVLRFWNTDIFNDRAAVLETIVAVLEKRLVREVRSAD”, the protein production is reported as “failed”. In the case of “DNYRTTGIATIEVFLPPRLKKDRKNLLETRLHITGRELRSKIAETFGLQENYIKIVINKKQLQLGKTLEEQGVAHNVKAMVLELKQS”, the protein production is reported as “not failed”. With “DPSVFSLPDSKLPGDKEFVPWQQDLDDSVKPTQQARPTVIRWSEGGKEVFISGSFNNWSTKIPLIKSHNDFVAILDLPEGEHQYKFFVDGQWVHDPSEPVVTSQLGTINNLIHVKKSDFEVFDALKLDSMESSETSCRV” the protein production was “failed”. In the case of “DQEPPLYVNENDIFTSPTRIEATLNGLYAAIKNTGTKSLMGGKSYLVFDNRGDDVINISNNLVTLFNTYNMNVGITDAENADTWTYAYLAINKVNTFLQSLEGAREVAGENYDRYVQEAKFVRALAYYYLNNLYPTPYSVNPDAKSVPLRLTAEAGTENNNMPRSTVKQIYEHILSDLENISALDTEVNTYTGVTHATQAAANMLKMRVYMAMNEWDKAITAGELVTGYSLPEDVTLIYKAPYFSQESIFSLPMADTNIPNTQQSLAEYYYDGKIMLIDTKSGIMSKPDYSLATDKRIIAFKGEKDLLMKFTDAKTKLQWVPIFRYAETLLDLAECYANKAGGEATAKSLLKQVRGRSVDAATDPLNIDNLSGDALKEAIYNEKRLEFIGEGIRGIDIMRRGEHFIKVGENETINVGPSDEKYTWPIPQVELLLNKDINK”, the protein production is reported as “not failed”.
